Results reported in the nanobody polyreactivity screen of Harvey et al. (2022).

Assay: yeast display, Sf9 membrane polyspecificity reagent, FACS + sequencing; frameworks hold sequencing errors
How it was run: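 In a synthetic yeast display library (Saccharomyces cerevisiae BJ5465), nanobody expression was induced with galactose for 36–48 hours. FACS gates were set low and high (top ~1%) using anti-HA fluorescence for expression and streptavidin fluorescence for binding of the Sf9 membrane reagent. Each polyreactivity label is drawn from the gate of origin.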

Sequence	polyreactivity (PSR sort gate)
QVQLQESGGLVQAGGSLRLSCAASGSISGRNVMGWYRQAPGKEREFVASITDGSSTNDADSVIGRFTISRDNAKNTVYLQMNSLKPKDTAVYYCAAYAHRAKSFGYWGRGTQVTVSS	low polyreactivity
QVQLQESGGRLVQAGGSLRLSCAPSGDILEADDMGWYRQAPGKERELVASITDGGSTNCADSMKGRSTICRDNAKITVYLQMNSLKPEDTAVYYCAADAWDLYSDGQEYNYWGQGTQVTVSS	high polyreactivity
QVQLQESGGSLVQAGGILRLSCAACGNIFPSAVMGWYRQALGKEREFVATINSGSYTYYADSVKVRFTISRDNAKNTVYLQMNSLKLDDSAVYYCAAYFKLPAWHTYWGQGTQVTVSS	low polyreactivity
QVQLQESGGVLVQAVDRQRLSCAASGNIFLFTDMGWYRQAPGKERELVAAINAGSTTYYADSVKGRFTISRDNAKNTVYLQMNSLNPEDTEVYYCAVYYLGSGTFGYWGQGAQVTVSS	high polyreactivity
QVQLQESGGVQAGGSLRLSCAASGYISRSDVMGWYRQAPVKERELVATINNGTLTYYADSVKGRFTISRDNAKNTVYLQMNSLKPEDTPVHYCAVLQSDTDSLYYWGQGSQVTVSS	low polyreactivity
QVQLQESGRGLVQAGGSLLSCAASGTISWVDEMGWYRHAPGNERELVAGIAGGGNTNYADSLKGRFTISRDNAKNTVYLHMNSQDTAVYYCAVVVFGRGTHIYWCQGTQVTVSS	high polyreactivity
QVQLQESGRRPGAAGGSPRMSCAASGNIFCVAVMGRYRQAPGKERELVASIGFGCTTYYADSVKCRFTISRDNAKNTVYLQMFSLKPEDTAVYYCAAPHYDWGELDYWGQGTQVPVSS	low polyreactivity
QVQLQESGRRPGAAGGSPRMSCAASGNIFWVAVMGRYRQAPGKERELVASIGFGCTTYYADSVKCRFTISRDNAKKTVYLQMISLKPEDTAVYYCAAPNYDWGELDYWGQGTQVPVSS	low polyreactivity
QVQLQESGSGLVQAGGSLRLSCAASGNISHYNDMGWYRQAPGKEREPVATINSGSITYYADSVKGRFTISRDNAKNTVYLQMNSLKPEDTAVYYCAVKQHGYFYLDYWGQGTQVTVSS	high polyreactivity
QVQLQESGVGLVQASGSIFHEPNMGSYRQAPGKERELVAGISSGANTYYADSVKGRFTISRDNAKNTVYLQMNSLKPEDTAVYHCAVVVHLYTDLRYWGQDTQVTVSS	high polyreactivity
QVQLQESRGGLVKAGGSLRLSCAATGNISPRDAMGWYRQAPGEERDLVASNAYSAITYYADGVKGRYTISRDNAKNTVYLQMNSLKPEDTEVYYCAVYQFTYPVFPAYWGQGTQVTVSS	low polyreactivity
QVQLQESRGGLVQAGGSLRLSCAASGTISDRAGMGWYRQAPAKNAIVATIDRGTNTNYADSVKGRFTISRDNAKNTVYLQMNSLKPEDTAVYNCAADGRYYIYLDYWGQGTQVTVSS	low polyreactivity
QVQLQESSGGLVQAGGSLRMSCAASGTIFHFHIMGWYRQAPGKESEFVAAISYGTSTYYADSVKGRFTISRDNAKNTVYLQMNSQKPEDSAVNYCAVYDYLEVYCWYWGQGTQVTVSS	low polyreactivity
QVQLQESVDGLVQAGGSLSLSSAASGTIFSDYGMGGYRQAPGKERELLAGISDGCNTNYTDSVKGRCTISRDNAHRVSADEQPETGGYRGVLLRGSERWLLFYVYWGQGTQVTVSS	high polyreactivity
QVQLQESVGGLVQAGGSLRLSCAASGNIFPTDRMGWYRQAPGKELEFVATISDGGSTNYADSVKGRFTISRDNAKNTVYLQMNSLKPEDTAVYYCAVWSLGRWRHYYWGQGTQVTVSS	low polyreactivity
QVQLQESVGGLVQAGGSLRLSCAASGNIFPTDRMGWYRQAPGKELEFVATISHGGSTNYADSVKGRFTISRDNAKNTVYLQMNSLKPEDTAVYYCAVWSLGRWRHYYWGQVTQVTVSS	low polyreactivity
QVQLQESVGGLVQAGGTLRMSCAASGSFSADEDMGWYRQAQGKEREFVAGISVGGNTNYADSVKGRFTISRENAKNTVYLQINSLKPEETAVYYCAADYKPTSRSNTYYYWGQGTQVTVSS	high polyreactivity
QVQLQGSGGGLVQAGGSLRLSCAASGYNFQNVPMGWNRQAPGKERELVAGIDNGTSTNYADSVNGRFTISRDNAKNTVYLQMNSLKPEDTAVYYCAAAGQADDTLGYWGQGTQVTVSS	low polyreactivity
QVQLQVSGGDLVQAGGSLRLSCAASGTIYGLISMGWYRQAPGKEREFVAAITDGGNTNYADSVKGRFTISRDNAKYTVYLQMISLKPEDTAVYYCAVLFSDDAYYAYWGQGTQVTVSS	low polyreactivity
QVQLQVSGGGLVQAGGNLRLSCAASGTISDSVGMGWYRQAPGKEREFVAGITLGGITNYADSVRGRFTISRDNGKNLYLQMKSLKPEETAVYYCAVDDYRYINYEFWGQGTQVTVSS	high polyreactivity
QVQLQVSGGGLVQAGGNLRLSCASSCTISESFGMGWNRQAPGKEREFVAGITMGGITNYADSVRGRFTISRDNAKNMYLQMNSLKPEDTAVYYCEVDDYRYINYEFWGQGTQVSVSS	high polyreactivity
QVQLQVSGGVLVQAGGSLRLTCAASGSIFLTSEMGWYRQAPGKERELVAAIATGTSTNYADSVKGRFTISRDNAKNTVYLQMNSLKPEDTAVYYCETYHYWGQGTQVTVSS	low polyreactivity

Sequence	polyreactivity (PSR sort gate)
QVQLRESGCGLVQAGGNLRLSCAARGNIFDADIMGWYRQAPGKERELVASITDGGSTNYADSVRCRFTISRDNAKNTVYLQMNSLKPEDTAVYYCTAIAYPDIPTYFDHDSDYFYWGQGTQVTVSS	high polyreactivity
QVQLVASAGGLVQAGGSLRFSCAASGRSFKRYTMGWYRQAPGKERELVAAITKRADRTNYADSVKGRFTISRDNAKNTVYLQMNSLKPEDTAVYYCYADGQNDLPSNGYISYKYDYWGQGTQVTVSS	low polyreactivity
QVQLVASGGGLDQAGGSLRLSCAASGFPFQENAMGWYRQAPGKERELVAAISYGGGSPSYADSVKGRFTISRDNAKNTVYVQMNSLKPEDNAVYYCAADGGSAYAWYFAELYGYWGQGTQVTVSS	low polyreactivity
QVQLVASGGGLLQAGGSLRLSCAASGSIVGLYAMGWYRQAPGNETELVAAISWSAGRTYYADTVKGRFTISRDNAKNTVYLQMNSLIPEETAVYYCNAPYLHYVFVFTDYSQRYDYWGQGTQVTVSS	high polyreactivity
QVQLVASGGGLVQAGGSLRLSCAASGSIFSYYTMGWYSQAPGKERELVASISRSGGRTNYADSVKGRFTISRDNAKNTVYLQMNSLKPEDTAVYYCKTERWGPYPHKRYNYWGQGTQVTVSS	high polyreactivity
QVQLVASGGGLVQAGGSLRLSCAASGSISFYNAMGWYRQAPGKERELVAAINRSGGSTNYADSVKGLFTISRDNGKNTVYLQMNSLKPEDTAVYYCAAVSSKGNRHVYDYWGQGTQVTGSS	low polyreactivity
QVQLVASGGGLVQAGGSLRLSCAASGSTFYYNAMGWSRQAPGKERELVAVISTSDGSTNYADSVKRRFTISSDNAKNTVYLQMISLKPEDTAVYYCAADYSESRRFDYWGQGTQVTVSS	low polyreactivity
QVQLVASGGGLVQAGGSLRLSCAATGSIFYINTMGWYRQAPGKERELVAAINFSDGRTYYADSVMGRFTISRDNAKNTVYLQIHSLKPEDTAVYYCAADVYPSEYDYWGQGTQVTVSS	low polyreactivity
QVQLVASGGGLVQSGGSLRLSCASSGSTFFRYAMGWYRHAPGKERELVAAISWSGGPTYYADSVKGRFTISRDNAKNTVFLQMNSLKPQDTAVYYCNAVRQGHILDYWGQGSQVTVSS	low polyreactivity
QVQLVDSAGALVQAGGSLRLSCAASGRTFRYNAMGWYRQAPGKERELVAAITQSGGSTYYADSVKGRFTISRDNAKNTVYLQMNSQKPEDTAVYYCAKVRERINYDYWGQGTQVTVSS	low polyreactivity
QVQLVDSAGCLVQAGGSLRLSCAASGRIFVYYVMGWYRQAPGKERELVASITFRGSRTYYADSVKGRFTISRDYAKNTVYLQMISLKPEDTAVYYCNADVWASGSRGDGYWGQGTQVTVAS	low polyreactivity
QVQLVDSAGCLVQAGGTLRLSGSASGSIFDAYAMGWYRQAPGKERELVASITSGGRTTYADSVKGRFTISRDNALNTVYLQMNSLKPEDTAVYYCAALRPGPRDDYWGQGSQVTVSS	high polyreactivity
QVQLVDSCGGLVQAGGSLRLSCHASGLTFFANAMGWYRQEHGKERELVAAITRRGGSTYYADSVKGRFTNSRDNAKNTVYLQMNSLKPEDTAVYYCAAEPRSVPAQYRSGDYWGQGTQVTVSS	high polyreactivity
QVQLVDSGGALVQAGGSLRLSCAASGRTFRPNAMGWYRQAPGKERELVAVISWRGGRTYYADYVKGRFTISRDIAKNTVYLQMNSLKPEDTAVYYCGARVYLSGYGYNYWGQGTHVTVSS	high polyreactivity
QVQLVDSGGAVVQAGGSLRLSCAASGYTFYRYAMGWYRQAPGKERELVAAMSRRGTRTYYADSVKGRFTISRDNAKNTVYLQMNSLKPEDTAVYFCNARRVRDVWWQLKRGDYWGQATQVTVSS	high polyreactivity
QVQLVDSGGGIVQAGGSLRLSCAASGFIIAHYAMGWYRHAPGKERELVAAISWNGGRTYYADSVKGRFTISRDNAKNSVFFQRISLKPEDTAVYYCAADNRGTTVYYRNYYWGQGTQVTVSS	high polyreactivity
QVQLVDSGGGLGQAGGSLRLSCAASGIIISGYAMGWYRQAPGKERELVASIRSGSNTYYADSVKGRFTISRDNAKNTVYLQKNSLNPEDTAVYYCAARVVPATFRFIRYPNTYYYWGQGSQVTVSS	low polyreactivity
QVQLVDSGGGLVQAAGSLRLSCAASGRIFYYNAKGCYRQAPVKERELVAAITRSGGSTYYADSVKGRFTSSRDNAKHTVYLQMNSLKPEDTAVYYCAKPDRTGWLDGDYWGQGTQVTVSS	low polyreactivity
QVQLVDSGGGLVQAGGILRLSCPASGLIIRKNAMGWYRQAPGKERELVAAISYNGASTYYADSVKGRFTISRDNAKNTVYLQMNSLKPEDTAVYYCAAYAGYSDQARYYYWGQGTQVTVSS	high polyreactivity
QVQLVDSGGGLVQAGGSHRLSCAASGFTFPYNAMGWYRQAPGKERELVAANSSTGGITYYADSVKGRFTISRDNAKNTVYLQMNSLKPEDTAVYYCGWYDYWGQGTQVTVSS	low polyreactivity
QVQLVDSGGGLVQAGGSHRLSCAASGSIFPRYAMGWYRQAPGKERELVAAITRSGGSTYADSVKGRFTISRDNAKNTVYLQMNSLKPEDTAVYYCNGKVYPWGYYTSWRTVSPYDYWGQGTQVTVSS	high polyreactivity
